Assay results: patent US20230312675A1

How the values were obtained:
Experiment in all cases: cell-based or functional assay
[1] = molecular target: EGFR on human cell lines (A431, T98G, LN18, U87, U87high, HRCE) (human) (UniProt P00533)
[2] = molecular target: Truncated EGFR (human EGFR containing only extracellular and transmembrane domains) (human) (UniProt P00533)
[3] = molecular target: truncated CD19 on EL4 cells (UniProt P15391)
UniProt P15391, sequence (P15391 20-333 limits assumed): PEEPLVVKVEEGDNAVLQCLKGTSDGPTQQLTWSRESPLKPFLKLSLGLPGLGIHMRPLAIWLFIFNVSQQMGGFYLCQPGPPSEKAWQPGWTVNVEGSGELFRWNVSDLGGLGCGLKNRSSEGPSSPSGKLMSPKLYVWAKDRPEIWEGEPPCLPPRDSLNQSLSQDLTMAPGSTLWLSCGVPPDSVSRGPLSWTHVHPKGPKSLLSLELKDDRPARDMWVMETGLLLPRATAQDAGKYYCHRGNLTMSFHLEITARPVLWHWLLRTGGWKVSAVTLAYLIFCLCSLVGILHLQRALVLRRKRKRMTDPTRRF

Substance | percent CAR remaining on T-cell surface after 12 hours of co-culture with U87 [1] | percent CAR remaining on T-cell surface after 12 hours of co-culture with U87high [1] | percent CAR remaining on T-cell surface after 48 hours of co-culture with U87 [1] | percent CAR remaining on T-cell surface after 48 hours of co-culture with U87high [1] | reduction in U87high cell number relative to controls grown without CAR+ T cells [1] | specific lysis of HRCE, 10:1 E:T ratio [1] | numeric expansion of CAR+ T cells over 28 days of co-culture with tEGFR+ K562 aAPC [2] | proportion of tEGFR+ EL4 in 1:1 co-culture with CAR+ T cells after 5 days [2] | specific lysis of tEGFR+ EL4 [2] | specific lysis of CD19+ EL4 (non-specific target) [3] | reduction in U87 cell number relative to controls grown without CAR+ T cells [1] | specific lysis of HRCE, DNA-modified T cells, 10:1 E:T ratio, 24 hrs [1] | specific lysis of HRCE, DNA-modified T cells, 10:1 E:T ratio, 120 hrs [1] | specific lysis of HRCE, RNA-modified T cells, 10:1 E:T ratio, 24 hrs [1] | specific lysis of HRCE, RNA-modified T cells, 10:1 E:T ratio, 120 hrs [1] | production of IFN-γ in response to tEGFR+ EL4, DNA-modified T cells, 24 hour time point [2] | production of IFN-γ in response to tEGFR+ EL4, DNA-modified T cells, 120 hour time point [2] | production of IFN-γ in response to tEGFR+ EL4, RNA-modified T cells, 24 hours after RNA transfer [2] | production of IFN-γ in response to tEGFR+ EL4, RNA-modified T cells, 120 hours after RNA transfer [2]
Nimotuzumab-derived CAR | 126% | 124% | 94.4% | 95.7% | 80% | 30.4% | 1000 fold | 80% | 21.2% | 12.3% | – | – | – | – | – | – | – | – | –
Cetuximab-derived CAR | 68% | 37.4% | 95.5% | 42.6% | 80% | 81.1% | 1000 fold | < 10% | 57.5% | 17.3% | 40% | 45.5% | 51.6% | 39.5% | 19.8% | 40.3% | 48.6% | 14.2% | 1.1%
